Results: patent US10617701B2, “Nutritional compositions containing phosphatidylethanolamine, sphingomyelin and docosahexaenoic acid” (Mead Johnson Nutrition Company, priority 2015, dated 2020)

Test system: embryonic mouse cortical cells
Assay: Functional neuronal maturation of cortical networks on microelectrode arrays (MEA recording, chronic treatment)
Assay type: cell-based
Conditions: cortical networks on MEAs
Experimental: Cortical cells were grown on multi-well microelectrode arrays (MEAs) and treated with 10 different experimental series, including different combinations of test agents (PE, SM, LF and DHA) and the activity was recoded at 4 different time points during the 4 weeks of functional neuronal maturation Cells growing on glass slides were treated in parallel for morphological and cell population analysis. These experiments aimed to elucidate whether the test compounds affect the functional and morphological neuronal maturation […] (see FIG. 1). […]
Primary cell culture for MEA recordings: In brief, frontal cortex tissue was harvested from embryonic day […] NMRI mice. […] Cultures on MEAs were incubated at 37° C. in a 10% CO2 atmosphere until ready for use, which usually is four weeks to three months after seeding. […]
Multichannel Recording: After establishing a stable activity pattern after 4 weeks, the neuronal networks on MEA chips are employed for substance testing. […] The signals routinely recorded by these neurochips are located in a range of 15-1800 […] . […]

B1: lactoferrin (protein, UniProt P24627 20-708, looked up)
Lactotransferrin: APRKNVRWCTISQPEWFKCRRWQWRMKKLGAPSITCVRRAFALECIRAIAEKKADAVTLDGGMVFEAGRDPYKLRPVAAEIYGTKESPQTHYYAVAVVKKGSNFQLDQLQGRKSCHTGLGRSAGWIIPMGILRPYLSWTESLEPLQGAVAKFFSASCVPCIDRQAYPNLCQLCKGEGENQCACSSREPYFGYSGAFKCLQDGAGDVAFVKETTVFENLPEKADRDQYELLCLNNSRAPVDAFKECHLAQVPSHAVVARSVDGKEDLIWKLLSKAQEKFGKNKSRSFQLFGSPPGQRDLLFKDSALGFLRIPSKVDSALYLGSRYLTTLKNLRETAEEVKARYTRVVWCAVGPEEQKKCQQWSQQSGQNVTCATASTTDDCIVLVLKGEADALNLDGGYIYTAGKCGLVPVLAENRKSSKHSSLDCVLRPTEGYLAVAVVKKANEGLTWNSLKDKKSCHTAVDRTAGWNIPMGLIVNQTGSCAFDEFFSQSCAPGADPKSRLCALCAGDDQGLDKCVPNSKEKYYGYTGAFRCLAEDVGDVAFVKNDTVWENTNGESTADWAKNLNREDFRLLCLDGTRKPVTEAQSCHLAVAPNHAVVSRSDRAAHVKQVLLHQQALFGKNGKNCPDKFCLFKSETKNLLFNDNTECLAKLGGRPTYEEYLGTEYVTAIANLKKCSTSPLLEACAFLTR
Q: B1 was tested. Which “acute effect on neuronal network activity in vitro” value did it give?
A: Its value is “acutely affect neuronal network activity”.
